Key:
[1] = system: subjects with previously treated locally advanced or metastatic urothelial cancer; conditions: in vivo
Source text: The Safety Analysis Set (SAF) will be used for the safety analysis. All subjects who are randomized and received study drug will be included in the SAF. The frequency of AEs and the serious AEs will be summarized by MedDRA system organ class and preferred term. In addition, summary statistics will be provided for the following safety parameters: • Laboratory values • Vital sign measurements • ECOG PS
An AE is any untoward medical occurrence in a subject, temporally associated with the use of a medicinal product, whether or not considered related to the medicinal product. An AE can therefore be any unfavorable and unintended sign (including an abnormal laboratory finding), symptom, or disease (new or exacerbated) temporally associated with the use of a medicinal product.
AEs, including abnormal clinical laboratory values, will be graded using the NCI-CTCAE guidelines (Version 4.03).
The safety analysis set (SAF), which consists of all subjects who received any amount of study drug, will be used for safety analyses.
SAF was used to perform all safety analysis. All treated subjects were analyzed according to the treatment they received.
The number and percentage of AEs by severity were also summarized. All AEs were listed.
A study drug-related TEAE is defined as any TEAE with a causal relationship of YES by the investigator. AEs of interest as classified by customized MedDRA queries and/or standard MedDRA queries were also summarized.

[2] = system: subjects with previously treated locally advanced or metastatic urothelial cancer; assay: EV-301: overall response rate, complete/partial response, disease control rate per RECIST V1.1 (response evaluable set); assay type: in vivo, human
Source text: Subjects will be evaluated for response according to the RECIST V1.1. Imaging for both arms will be performed at baseline and every 56 days (±7 days) from the first dose of study treatment throughout the study until PFS1 is documented by radiological disease progression or the subject is lost to follow-up, death, withdraws study consent or starts a subsequent anti-cancer therapy.
CR is defined as disappearance of all target and nontarget lesions. Any pathological lymph nodes (whether target or nontarget) must have reduction in short axis to <10 mm from baseline measurement.
PR is defined as at least a 30% decrease in the sum of diameters (longest for nonnodal lesions, short axis for nodal lesions) of target lesions taking as reference to the baseline sum of diameters.
SD is defined as neither sufficient decrease to qualify for PR nor sufficient increase to qualify for progressive disease taking as reference the smallest sum of diameters while on study drug.
PD is defined as at least a 20% increase in the sum of diameters (longest for nonnodal lesions, short axis for nodal lesions) of the target lesions taking as reference the smallest sum on study (this includes the baseline sum if that is the smallest on study). […] The appearance of 1 or more new lesions is also considered progression.
The response evaluable set (RES) is defined as all subjects in FAS and with measurable disease at baseline and had at least 6 months follow up since randomization. RES will be used for primary efficacy analysis of response related endpoints, e.g., ORR and DCR.
The overall response rate (ORR) is defined as the proportion of subjects with complete or partial objective response based on the RECIST V1.1. The comparison of ORR between Arm A and Arm B was performed using a stratified CMH test. Same stratification factors used in time to event analyses will be used for the stratified CMH test. […] In addition, ORR for each arm was estimated and corresponding 95% confidence interval will be constructed. The primary analysis was performed using the RES.
The DCR is defined as the proportion of subjects with a complete or partial objective response or a stable disease based on RECIST V1.1. The comparison of DCR between Arm A and Arm B was performed using a stratified CMH test. Same stratification factors used in time to event analyses were used for the stratified CMH test. […] In addition, DCR for each arm was estimated and corresponding 95% confidence interval will be constructed. The primary analysis was performed using the RES.

[3] = biological target: T1, 191P4D12 (Homo sapiens, UniProt Q96NY8)
T1 sequence (Q96NY8 32-510): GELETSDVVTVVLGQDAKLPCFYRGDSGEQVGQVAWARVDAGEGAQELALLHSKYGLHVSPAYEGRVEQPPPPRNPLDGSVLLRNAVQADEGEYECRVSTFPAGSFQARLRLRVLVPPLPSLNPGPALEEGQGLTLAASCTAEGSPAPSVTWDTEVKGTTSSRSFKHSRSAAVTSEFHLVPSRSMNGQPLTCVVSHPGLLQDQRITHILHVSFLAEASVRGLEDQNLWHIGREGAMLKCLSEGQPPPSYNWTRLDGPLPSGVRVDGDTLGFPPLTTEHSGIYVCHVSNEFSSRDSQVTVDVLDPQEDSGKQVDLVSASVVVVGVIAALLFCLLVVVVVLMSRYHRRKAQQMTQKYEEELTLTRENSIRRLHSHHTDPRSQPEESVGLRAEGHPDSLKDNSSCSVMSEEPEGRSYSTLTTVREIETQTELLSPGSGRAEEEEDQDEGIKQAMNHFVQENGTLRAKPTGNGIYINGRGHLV
Source text: As described above and in U.S. Pat. No. 8,637,642, AGS-22M6E is an ADC derived from a murine hybridoma cell line.

[4] = All, Response-Evaluable Population

enfortumab vedotin
Death, % [1]: (43.9%) | Drug-Related Serious TEAE, % [1]: (22.6%) | Drug-Related TEAE Leading to Death, % [1]: (2.4%) | Drug-Related TEAE Leading to Death, Exclusing Disease Progression, % [1]: (2.4%) | Drug-Related TEAE Leading to Withdrawal of Treatment, % [1]: (13.5%) | Drug-Related TEAE with CTCAE Grade >=3, % [1]: (51.4%) | Drug-Related TEAE, % [1]: (93.9%) | Serious TEAE, % [1]: (46.6%) | TEAE Leading to Death, % [1]: (7.1%) | TEAE Leading to Death, Exclusing Disease Progression, % [1]: (3.7%) | TEAE Leading to Withdrawal of Treatment, % [1]: (17.2%) | TEAE Leading to dose interruption, % [1]: (60.8) % | TEAE Leading to dose reduction, % [1]: (34.1) % | TEAE with CTCAE Grade >=3, % [1]: (70.9%) | TEAE, % [1]: (98.0%) | TEAE: Alopecia, % [1]: (47.0) % | TEAE: Anemia, % [1]: (19.9) % | TEAE: Constipation, % [1]: (27.7) % | TEAE: Decreased appetite, % [1]: (40.9) % | TEAE: Diarrhea, % [1]: (34.8) % | TEAE: Dysgeusia, % [1]: (25.0) % | TEAE: Fatigue, % [1]: (36.1) % | TEAE: Nausea, % [1]: (30.1) % | TEAE: Peripheral sensory neuropathy, % [1]: (34.5) % | TEAE: Pruritis, % [1]: (34.5) % | TEAE: Pyrexia, % [1]: (22.0) % | TRAE Leading to dose interruption: Anemia, % [1]: (2.7) % | TRAE Leading to dose interruption: Asthenia, % [1]: (2.0) % | TRAE Leading to dose interruption: Diarrhea, % [1]: (2.0) % | TRAE Leading to dose interruption: Drug eruption, % [1]: (2.4) % | TRAE Leading to dose interruption: Fatigue, % [1]: (5.4) % | TRAE Leading to dose interruption: Neuropathy peripheral, % [1]: (3.0) % | TRAE Leading to dose interruption: Neutropenia, % [1]: (2.0) % | TRAE Leading to dose interruption: Neutrophil count decreased, % [1]: (5.1) % | TRAE Leading to dose interruption: Peripheral sensory neuropathy, % [1]: (15.5) % | TRAE Leading to dose interruption: Rash maculo-papular, % [1]: (4.4) % | TRAE Leading to dose interruption: Rash, % [1]: (3.4) % | TRAE Leading to dose reduction: Decreased appetite, % [1]: (3.4) % | TRAE Leading to dose reduction: Fatigue, % [1]: (2.7) % | TRAE Leading to dose reduction: Neutropenia, % [1]: (1.7) % | TRAE Leading to dose reduction: Neutrophil count decreased, % [1]: (2.0) % | TRAE Leading to dose reduction: Peripheral sensory neuropathy, % [1]: (7.1) % | TRAE Leading to dose reduction: Rash maculo-papular, % [1]: (4.4) % | TRAE Leading to dose withdrawal: Peripheral sensory neuropathy, % [1]: (2.4) % | ORR, EV vs SC Absolute Difference [2, 4]: 22.7% | Overall response rate (ORR), % [2, 4]: 40.6% | Overall response rate (ORR), n/N [2, 4]: 117/288 | Best overall response: Complete response, % ([2]; RECIST v1.1, RES): (4.9) % | Best overall response: Not evaluable, % ([2]; RECIST v1.1, RES): (12.8) % | Best overall response: Partial response, % ([2]; RECIST v1.1, RES): (35.8) % | Best overall response: Progressive disease, % ([2]; RECIST v1.1, RES): (15.3) % | Best overall response: Stable disease, % ([2]; RECIST v1.1, RES): (31.3) % | Time to response, Median ([2]; RES): 1.87 months | Overall Response Rate (ORR), Confirmed, % ([2]; RES, investigator assessment, N = 288 EV, 296 chemotherapy): (40.6%) | Disease control rate, Patients, % ([2]; RES, N = 288 EV, 296 chemotherapy): (71.9%) | complete response, number of patients ([2]; of 288 (enfortumab vedotin) / of 296 (chemotherapy)): 14 | Disease control ([2]; response-evaluable population): 71.9% | complete response, % of the patients ([2]; response-evaluable population): 4.9% | comparability between enfortumab vedotin and AGS-22M6E [3]: confirmed

Reference: US20230330251A1, “METHODS FOR TREATING CANCERS WITH ANTIBODY DRUG CONJUGATES (ADC) THAT BIND TO 191P4D12 PROTEINS” (AGENSYS, INC., priority 2020, published 2023)
